Where “and” joins values, the source holds several entries; their conditions need not be identical. Equal entries are not always repeated. Where two headings read alike, the source gives them in different places. Blank lines part the entries; values can stand above or below the binder they belong to.
Assays:
[1] = biological target: T1, EGFR (UniProt P00533 25-1210, limits assumed); assay: binding to EGFR positive cells (data not shown)
T1 construct: whole, on cells; also called EGFR positive cells; EGFR positive H292 cells

[2] = biological target: T2, CD20 (UniProt P11836 1-297, limits assumed); assay: binding to CD20 positive HEK293 cells (method of the fit not stated); scFv-based construct #302 (Leu16 scFv), not the full mAb
T2 construct: whole, on cells; also called CD20 positive HEK293 cells
T2 sequence (looked up): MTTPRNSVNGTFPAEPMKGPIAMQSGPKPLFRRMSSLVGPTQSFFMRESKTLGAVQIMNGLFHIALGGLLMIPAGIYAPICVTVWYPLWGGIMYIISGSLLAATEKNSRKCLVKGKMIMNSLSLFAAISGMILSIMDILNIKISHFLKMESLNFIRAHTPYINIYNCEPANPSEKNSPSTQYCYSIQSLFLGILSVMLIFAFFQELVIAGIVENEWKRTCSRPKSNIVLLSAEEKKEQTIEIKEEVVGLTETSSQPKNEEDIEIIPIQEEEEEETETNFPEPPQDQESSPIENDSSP

[3] = biological target: T2, CD20; assay: FACS on CD20 positive HEK293 cells, detected with FMC63-PE
[4] = biological target: T2, CD20; assay: FACS on 293T cells transfected with CD20, FMC63-PE detection
[5] = biological target: T3, Clec12A (human, UniProt Q5QGZ9 1-265); assay: FACS on Clec12A expressing U937 cells, detected with a-His-PE
T3 construct: whole, on cells; also called CLL-1; MICL
T3 sequence (looked up): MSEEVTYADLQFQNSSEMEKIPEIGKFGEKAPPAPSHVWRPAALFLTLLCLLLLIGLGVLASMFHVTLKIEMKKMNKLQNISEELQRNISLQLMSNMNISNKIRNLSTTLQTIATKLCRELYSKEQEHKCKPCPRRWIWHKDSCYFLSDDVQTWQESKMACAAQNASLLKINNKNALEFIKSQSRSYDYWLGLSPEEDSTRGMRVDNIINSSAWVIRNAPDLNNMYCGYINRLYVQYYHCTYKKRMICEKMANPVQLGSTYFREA

[6] = biological target: T3, Clec12A; assay: FACS on Clec12A expressing U937 cells, detected with FMC63-PE
[7] = biological target: T3, Clec12A; assay: sandwich ELISA: coated with FMC63, construct titrated (x-axis ug/ml), followed by Clec12A-bio, detected by HRP-SA
[8] = biological target: T2, CD20; assay: binding to CD20 positive cells; unit as printed in the table, but the x-axis of the curve is in ng/ml and the half-maximum lies near 20 on it
[9] = biological target: T2, CD20; assay: binding to CD20 positive HEK293 cells (method of the fit not stated)
[10] = biological target: T2, CD20; assay: binding to CD20 positive cells; unit as printed in the table; it follows from 22.34 ug/ml and MW 210.8 kDa, while the curve's axis is in ng/ml
[11] = biological target: T3, Clec12A; assay: sandwich ELISA: coated with FMC63, construct titrated (x-axis ug/ml), followed by Clec12A-bio, detected by HRP-SA; remark: listed apart in the source
[12] = biological target: T3, Clec12A; assay: FACS on Clec12A-expressing U937 cells, % Binding against concentration, detected with FMC63-PE
Description: (§1) In addition, bispecific constructs were generated and assayed. […] These constructs were assayed for binding to U937 cells. […] Cells were then spun, washed twice, fixed, and analyzed by FACS.

[13] = biological target: T3, Clec12A; assay: FACS on Clec12A-expressing U937 cells, % Binding against concentration, detected with FMC63-PE; molar value with printed MW 43.7 kDa
Description: as §1

[14] = biological target: T3, Clec12A; assay: sandwich ELISA: coated with FMC63, construct titrated, followed by Clec12A-bio, detected by HRP-SA
[15] = biological target: T3, Clec12A; assay: sandwich ELISA as for the other curves; the curve still rises at 1 ug/ml (about 1.33), no upper plateau; fit D 1.55
[16] = biological target: T3, Clec12A; assay: sandwich ELISA as for the other curves; the curve stays near 0.13 up to about 0.33 ug/ml and reaches only about 0.18 at 1 ug/ml (fit A 0.13, D 0.202)

binding result [1]: binds
B1: CD19 ECD N term mutant#-EGFR Fn3 (designed binder)
chain: PEEPLVVKVEEGDTAALWCLKGTSDGPTQQLTWSRESPLKPFLKYSLGVPGMGVHVRPNAVSLVISNVSQQMGGFYLCQPGPPSEKAWQPGWTVNVEGSGELFRWNVSDLGGLGCGLKNRSSEGPSSPSGKLMSPKLYVWAKDRPEIWEGEPPCLPPRDSLNQSLSRDMTVAPGSTLWLSCGVPPDSVSRGPLSWTHVHPKGPKSLLSLELKDDRPARDMWVMETGLVLPRATAQDAGKWYCHRGNVTTSYHLEITARPVSAHTPLRTGGWKGGGGSGGGGSGGGGSGGGGSVSDVPRDLEVVAATPTSLLISWFDYAVTYYRITYGETGGNSPVQEFTVPGWISTATISGLKPGVDYTITVYAVTDNSHWPFRSTPISTNYRTEIDKPPQHHHHHH
notes: Fusion protein; also called construct #230; CD19-Fn3/EGFR

Kd [2]: ~3 nM | EC50 [3]: 0.161 µg/mL and 2.78 nM | EC50 [4]: 0.0754 µg/mL and 1.3 nM
B2: anti-CD20 scFv-CD19 D1+2 C term mutant #2 (scFv)
chain: QVKLQESGAELVKPGASVKMSCKASGYTFTSYNMHWVKQTPGQGLEWIGAIYPGNGDTSYNQKFKGKATLTADKSSSTAYMQLSSLTSEDSADYYCARSNYYGSSYWFFDVWGQGTTVTVSSASTGGGGSGGGGSGGGGSDIELTQSPTILSASPGEKVTMTCRASSSVNYMDWYQKKPGSSPKPWIYATSNLASGVPARFSGSGSGTSYSLTISRVEAEDAATYYCQQWSFNPPTFGGGTKLEIKRAAAGGGGSGGGGSGGGGSGGGGSPEEPLVVKVEEGDTAALWCLKGTSDGPTQQLTWSRESPLKPFLKYSLGVPGLGVHVRPDAISVVIRNVSQQMGGFYLCQPGPPSEKAWQPGWTVNVEGSGELFRWNVSDLGGLGCGLKNRSSEGPSSPSGKLMSPKLYVWAKDRPEIWEGEPPCLPPRDSLNQSLSRDLTVAPGSTLWLSCGVPPDSVSRGPLSWTHVHPKGPKSLLSLELKDDRPARDMWVMGTSLMLPRATAQDAGKWYCHRGNLTMSFHLEITARPSRHHHHHH
notes: scFv of anti-CD20 mAb Leu16 fused to a CD19 variant; also called Leu16scFv-CD19 construct

B3: CD19 ECD N term mutant #2-G4Sx4-anti CLEC12a VHH 1B12-His (VHH)
chain: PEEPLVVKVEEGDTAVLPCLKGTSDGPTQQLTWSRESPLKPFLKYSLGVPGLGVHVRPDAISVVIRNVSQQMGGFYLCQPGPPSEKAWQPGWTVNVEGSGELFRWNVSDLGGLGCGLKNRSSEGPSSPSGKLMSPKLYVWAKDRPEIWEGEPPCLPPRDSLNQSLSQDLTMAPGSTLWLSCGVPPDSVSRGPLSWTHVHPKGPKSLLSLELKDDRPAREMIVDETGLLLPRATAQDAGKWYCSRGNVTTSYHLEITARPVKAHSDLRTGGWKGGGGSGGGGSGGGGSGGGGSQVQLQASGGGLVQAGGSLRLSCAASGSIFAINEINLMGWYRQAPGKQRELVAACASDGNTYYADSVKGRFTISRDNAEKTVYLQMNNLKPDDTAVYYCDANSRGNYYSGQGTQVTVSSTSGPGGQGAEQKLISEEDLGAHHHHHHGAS
notes: CD19 variant-VHH fusion; also called CD19-VHH1B12/Clec12A
EC50 [5]: 0.233 µg/mL and 4.96 nM | EC50 [6]: 0.155 µg/mL and 3.3 nM | C of the 4-P fit (midpoint) [7]: 0.00403 µg/mL | EC50 [7]: 0.004 µg/mL and 0.086 nM

EC50 [8]: 22.3 µg/mL | Kd [9]: ~0.016 nM | EC50 [3]: 0.00343 µg/mL and 0.0163 nM | EC50 [10]: 106 nM
B4: Rituximab-CD19 construct (#377/378) (antibody, human IgG1, kappa)
light: QIVLSQSPAILSASPGEKVTMTCRASSSVSYIHWFQQKPGSSPKPWIYATSNLASGVPVRFSGSGSGTSYSLTISRVEAEDAATYYCQQWTSNPPTFGGGTKLEIKRTVAAPSVFIFPPSDEQLKSGTASVVCLLNNFYPREAKVQWKVDNALQSGNSQESVTEQDSKDSTYSLSSTLTLSKADYEKHKVYACEVTHQGLSSPVTKSFNRGECGGGGSGGGGSGGGGSGGGGSPEEPLVVKVEEGDTAALWCLKGTSDGPTQQLTWSRESPLKPFLKYSLGVPGLGVHVRPDAISVVIRNVSQQMGGFYLCQPGPPSEKAWQPGWTVNVEGSGELFRWNVSDLGGLGCGLKNRSSEGPSSPSGKLMSPKLYVWAKDRPEIWEGEPPCLPPRDSLNQSLSRDLTVAPGSTLWLSCGVPPDSVSRGPLSWTHVHPKGPKSLLSLELKDDRPARDMWVMGTSLMLPRATAQDAGKWYCHRGNLTMSFHLEITARPSRHHHHHH
heavy: not shown
notes: also called Rituximab-based construct; wild type Rituximab-CD19 construct

EC50 [5]: 0.0446 µg/mL and 0.95 nM | C of the 4-P fit (midpoint) [11]: 0.0168 µg/mL | EC50 [11]: 0.0168 µg/mL and 0.361 nM | EC50 [12]: 0.0449 µg/mL | EC50 (read off the curve) [12]: ~0.05 µg/mL | EC50 [6]: 0.0723 µg/mL and 1.54 nM | EC50 [13]: 1.03 nM
B5: anti-CLEC12a VHH 2H3-CD19 D1+2 C term mutant #2 (VHH)
VHH: QVQLQESGGGLVQAGGSLRLSCVASGSIRSINVMGWYRQAPGKQRELVAACASDGNTYYADSVKGRFTISRDNAEKTVYLQMNNLKPDDTAVYYCDANSRGNYYSGQGTQVTVSS
notes: also called construct #330

binding result [14]: no binding (tested: 1 ug/ml)
B6: #320 (VHH)
fusion protein, single chain: PEEPLVVKVEEGDTAVLPCLKGTSDGPTQQLTWSRESPLKPFLKYSLGVPGLGVHVRPDAISVVIRNVSQQMGGFYLCQPGPPSEKAWQPGWTVNVEGSGELFRWNVSDLGGLGCGLKNRSSEGPSSPSGKLMSPKLYVWAKDRPEIWEGEPPCLPPRDSLNQSLSQDLTMAPGSTLWLSCGVPPDSVSRGPLSWTHVHPKGPKSLLSLELKDDRPAREMIVDETGLLLPRATAQDAGKWYCSRGNVTTSYHLEITARPVKAHSDLRTGGWKGGGGSGGGGSGGGGSGGGGSAVQLQESGGGLVQAGGSLRLSCAASGSDRSINVMNWYRQAPGKQRELVAAITSGGTTNYAQSVKGRVTISRDSAKNTVYLQMNSLKPEDTAVYFCKADTRWGGMYWGPGTQVTVSSTSGPGGQGAEQKLISEEDLGAHHHHHHGAS
notes: also called construct #320; CD19 mutant #2-G4Sx4-anti CLEC12a VHH 1B11 myc His

EC50 [15]: 0.155 µg/mL and 3.33 nM
B7: #328 (VHH)
VHH: QVQLQESGGGLVQPGGSLRLSCAASGFTFNSYAMTWVRQAPGKGLEWVSDINSGGGSTNYADSVKGRFTISRDNAKNTLYLQMNSLKPEDTAVYYCATELRGSDYYRGPIREYAYWGQGTLVTVSS
notes: also called anti CLEC12a VHH 1H1-G4Sx4-CD19 C-term mutant #2-His

EC50 [16]: 0.698 µg/mL and 15 nM
B8: #331 (VHH)
VHH: QVQLQQSGGGLVQAGGSLTLSCAATGRTIDNGAMAWFRQAPGKQRELVAAINWSGGATFYTDSVKYRFTISRDNVRHTLDLQMTSLKPEDTTIYFCASRRGVDLRRNSYEYDYWGRGTLVTVSS
notes: also called anti CLEC12a VHH 2C2-G4Sx4-CD19 C-term mutant #2-His

EC50 [4]: 0.379 µg/mL and 6.68 nM
B9: CD19 D1+2-anti-CD20 scFv (VH/VL) (scFv)
chain: PEEPLVVKVEEGDNAVLQCLKGTSDGPTQQLTWSRESPLKPFLKLSLGLPGLGIHMRPLAIWLFIFNVSQQMGGFYLCQPGPPSEKAWQPGWTVNVEGSGELFRWNVSDLGGLGCGLKNRSSEGPSSPSGKLMSPKLYVWAKDRPEIWEGEPPCLPPRDSLNQSLSQDLTMAPGSTLWLSCGVPPDSVSRGPLSWTHVHPKGPKSLLSLELKDDRPARDMWVMETGLLLPRATAQDAGKYYCHRGNLTMSFHLEITARPGGGGSGGGGSGGGGSGGGGSMAQVKLQESGAELVKPGASVKMSCKASGYTFTSYNMHWVKQTPGQGLEWIGAIYPGNGDTSYNQKFKGKATLTADKSSSTAYMQLSSLTSEDSADYYCARSNYYGSSYWFFDVWGQGTTVTVSSGGGGSGGGGSGGGGSDIELTQSPTILSASPGEKVTMTCRASSSVNYMDWYQKKPGSSPKPWIYATSNLASGVPARFSGSGSGTSYSLTISRVEAEDAATYYCQQWSFNPPTFGGGTKLEIKRAAAHHHHHH
notes: Wild type CD19 D1+D2 N-terminal to the Leu16 scFv; also called construct #83; wild type CD19 D1+D2 fusion protein

From patent US20210079060A1 (ALETA BIOTHERAPEUTICS, published 2021)
